Kd data for three molecules are collected here from patent US20230416313A1 (published 2023).

The target of assay [1] is T1, recombinant human complement factor H (CFH), isolated from moss (human, UniProt P08603 19-1231).
T1 chain: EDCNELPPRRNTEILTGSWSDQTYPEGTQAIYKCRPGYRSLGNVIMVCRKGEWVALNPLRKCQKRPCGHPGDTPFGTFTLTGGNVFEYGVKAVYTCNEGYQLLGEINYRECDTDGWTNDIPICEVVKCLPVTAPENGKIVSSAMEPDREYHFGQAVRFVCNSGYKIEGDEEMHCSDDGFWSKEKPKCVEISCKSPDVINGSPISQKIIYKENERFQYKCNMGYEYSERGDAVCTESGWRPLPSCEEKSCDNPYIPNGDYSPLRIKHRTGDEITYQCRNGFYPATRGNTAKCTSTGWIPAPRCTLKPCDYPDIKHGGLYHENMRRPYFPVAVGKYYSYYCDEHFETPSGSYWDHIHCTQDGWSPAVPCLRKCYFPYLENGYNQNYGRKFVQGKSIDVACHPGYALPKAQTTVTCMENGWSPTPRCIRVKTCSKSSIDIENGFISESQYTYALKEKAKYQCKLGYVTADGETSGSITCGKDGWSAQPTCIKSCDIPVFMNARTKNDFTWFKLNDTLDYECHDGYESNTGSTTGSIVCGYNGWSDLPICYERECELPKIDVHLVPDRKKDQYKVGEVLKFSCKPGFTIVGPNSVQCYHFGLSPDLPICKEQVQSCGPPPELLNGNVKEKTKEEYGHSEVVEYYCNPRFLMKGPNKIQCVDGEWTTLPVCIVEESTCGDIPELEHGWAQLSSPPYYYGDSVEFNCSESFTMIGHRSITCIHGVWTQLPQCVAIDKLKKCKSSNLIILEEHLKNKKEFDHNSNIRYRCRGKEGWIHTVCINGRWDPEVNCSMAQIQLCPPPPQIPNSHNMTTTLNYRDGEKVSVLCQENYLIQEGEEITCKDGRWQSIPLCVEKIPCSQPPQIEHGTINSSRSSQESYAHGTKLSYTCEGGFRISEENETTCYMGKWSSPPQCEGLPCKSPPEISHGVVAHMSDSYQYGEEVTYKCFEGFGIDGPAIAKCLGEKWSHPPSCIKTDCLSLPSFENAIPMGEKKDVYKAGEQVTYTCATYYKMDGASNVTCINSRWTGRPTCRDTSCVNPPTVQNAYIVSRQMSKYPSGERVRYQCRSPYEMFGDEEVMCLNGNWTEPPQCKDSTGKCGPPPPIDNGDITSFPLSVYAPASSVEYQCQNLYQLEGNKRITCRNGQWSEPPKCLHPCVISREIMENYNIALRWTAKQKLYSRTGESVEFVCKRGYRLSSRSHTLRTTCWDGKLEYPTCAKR
Briefly: SPR; steady state. Background: Surface plasmon resonance follows binding to a sensor surface in real time, without labels.

For assay [2], the target named is T1, recombinant human complement factor H …. Description: BLI; steady state.

The Kd is the constant that tells how readily two partners part at equilibrium.

B1: 209202 (protein)
chain: NAADLDEAQISAIFEIMDLPNLTWQQQEWFIDSLSDDPSVSKEVLGEAQKLNDSQAPK
As for B1, the Kd in assay [1] came to 35 nM.

B2: CFH binding protein of SEQ ID NO: 5 (CID 209447) (designed binder)
chain: NAAEADDAQVSAAMEIIMLPNLTLEQAHSFIESLYRDPSVSKEVLGEAQKLNDSQAPK
For B2, the Kd in assay [2] was 120 nM.

B3: CFH binding protein of SEQ ID NO: 20 (CID 209864) (designed binder)
chain: IAAKFDEAQQAAFYEILHLPNLTELQRNHFIQTLRDDPSVSLWVLGLAQLLNDSQAPKIAAKFDEAQQHAFYTILHLENLTEEQRNAFIQSLRDDPSVSLEVLGEAIKLNISQAPK
Take B3: the Kd in assay [2] was found to be 421 nM.
